Measured values from paper PMC2846751 (Biochemistry, 2010).

B1: His6-ParE toxin (ParE1) of Caulobacter crescentus (natural protein, UniProt Q9A9T8 1-96, looked up)
chain: MKPYRLSRRAKADLDDIWTYSEQRWGVEQAADYARELQATIEMIAEHPGMGQPDENLRAGYRRCASGSHVVFYRVGVRVEIIRVLHQSMNARAHLG
modifications: selenomethionine-labeled in the crystal and SAXS samples

Assays:
[1] = biological target: ParD antitoxin (ParD1) of Caulobacter crescentus (Caulobacter crescentus); assay: SEC
[2] = biological target: the molecule itself; assay: crystal structure

Molecule	stoichiometry N [1]	binding result [2]
ParD antitoxin (ParD1) of Caulobacter crescentus (natural protein)	2	
B1		binds
